# Experimental data from the RNAGym collection of RNA variant scans (doi:10.1073/pnas.2313332121).
# This sample holds only a part of the variants without activity.
# B1: TPR 5TU (parent)
# chain: GGAUCUUCUCGAUCUAACAAAAAAGACAAAUCUGCCACAAAGCUUGAGAGCAUCUUCGGAUGCAGAGGCGGCAGCCUUCGGUGGCGCGAUAGCGCCAACGUUCUCAACUAUGACACGCAAAACGCGUGCUCCGUUGAAUGGAGUUUAUCAUG
# Variants of: B1
# Assay: polymerase ribozyme fitness, log enrichment relative to wild type (log ratio); higher = more active; in vitro selection for triplet polymerase activity
# Summary of the method: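 A heterodimeric triplet polymerase ribozyme had each of its subunits mutagenized by PCR into a library, which was transcribed. One round of in vitro selection, done in triplicate, annealed each library with a biotinylated primer, its partner subunit and triplets, then incubated it frozen at −7 °C before gel excision of extended constructs, streptavidin-bead capture and RT-PCR. Fitness is the logarithm of genotype enrichment relative to wild-type enrichment, based on Illumina sequencing of inputs and outputs and inverse-variance-weighted replicate averages. A base-2 logarithm is used, and genotypes were kept only with ≥10 input reads and ≥1 read per output.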
row,Variant,polymerase ribozyme fitness (log ratio)
1,C14A U61A,-3.22
2,A12G A20U C103A C116A A121U C129A,≤ -4.2
3,U13G A66C G80U G83C U101C U139C,≤ -4.2
4,C14G G48U C76U U77G A91C C99G C105G A122G C123G C129G U135G,≤ -4.2
5,U13C A21U A52C U55G G67U G80A C105U A150C,≤ -4.2
6,C14A G59C C85A C99U G141U U146G,≤ -4.2
7,U13G U53A C85A C95U A98U G141C,≤ -4.2
8,A12C U61A G84U A97U U145C,≤ -4.2
9,A12U C38A G59U C87A A97U,≤ -4.2
10,A12G U33G C36A G86U A110C C118U C123U,≤ -4.2
11,A12C C96G C99U,-2.39
12,C14G A26U A28G C35A U56C C57U U90G,≤ -4.2
13,A12U C57U,-0.208
14,A12U G84A G88C A119C G140A,≤ -4.2
15,C14G A30G A52C C72A C95G C103G,≤ -4.2
16,U13A C18U C51U G86A,-2.27
17,U13G C36U A52G G70A G84U,-0.614
18,C14G C54U C72U,-3.4
19,A12U A23G C87U A150C,≤ -4.2
20,U13C C18G C35G A40G C63A A91U C118U C132U A150U,≤ -4.2
21,C14A C27G A28G C43U G81A G84U U109G G143A,≤ -4.2

row,Variant,polymerase ribozyme fitness (log ratio)
1,A12U G58A U144C U146A,-3.88
2,A12C U56A G88U,-3.41
3,C14A C32U C85U A98U U111G U139G U151A,-4.14
4,A12G A39C,-1.68
5,A12G A39G,-1.53
6,U13A G42C G48C C85A C99G A106G G133U G141C,≤ -4.2
7,U13G C32G A41C G141U,≤ -4.2
8,C14G C75G U77A C87A A137U G143U,≤ -4.2
9,C14G A24G A26G A39C A66C C105U A107U,≤ -4.2
10,U13C C51U G59C G92U A115G G143C,-3.61
11,A12G A40G A41C G65A C85U A107G C123G G152A,≤ -4.2
12,A12G C72G G74U G83U U146G,≤ -4.2
13,U13C A41U U55A C96U C118A,-2.88
14,A12U A21G C95U C99A G126A C132U,-3.58
15,A12U G48U C51A G58C U61G C114U,≤ -4.2
16,U13A A37U C96U G126U,-2.85
17,C14G A17C A23C A40C G88A G94U C123G U134G G140A,≤ -4.2
18,A12G U144A,1.44
19,A12G U55A G84A G117U,-0.697
20,A12U C36U U61G G67A U82G A106G A138U,-4.08
21,C14A C54U C118U G136U,-4.12

row,Variant,polymerase ribozyme fitness (log ratio)
1,A12G G58A U148C,-1.8
2,C14G A17C U44A G81A C85U C125A,≤ -4.2
3,U13A A24G C27U A39C G50A G84U,≤ -4.2
4,U13G A60U G83C C108U,≤ -4.2
5,C14A A49C C69A,≤ -4.2
6,U13A A49C G50C C51U G62C C76A G81A C85U G112A G124U,≤ -4.2
7,A12C C57U C72A C93G U111G U146G,≤ -4.2
8,C14G A60G,-2.34
9,C14A G59U G94U C125G U134A U151G,≤ -4.2
10,A12U C14G A20G A73G U77A G86U C96U G117U,≤ -4.2
11,C14G A30U C36A U55A A73C C85U A119G,≤ -4.2
12,U13G G84A,-0.636
13,C14G G34U A41C U77G G83U A115G U135G,≤ -4.2
14,A12G U44G A60G G65C C114G,≤ -4.2
15,U13G C54U G84U,-2.19
16,C14A A20U A47U C76U C85A C95U A115U C131G,≤ -4.2
17,U13C A22G U61A G83A,-3.83
18,U13A C54A A91C,≤ -4.2
19,U13C A16U U33A C54G G67C G133U U144A,≤ -4.2
20,C14A C18G A41C G42A G59C G68A C95U,≤ -4.2
21,A12G C95U C105G A106U,-4.1

row,Variant,polymerase ribozyme fitness (log ratio)
1,A12U C14A G58C C85A,-3.13
2,U13A C103A,-2.51
3,U13A A37C C57A G126U,-1.66
4,C14A A28G A122U U134G U144G,≤ -4.2
5,U13G A19U C51U A97U,-2.04
6,A12U A41C U55G A66G G88U G94U U134A G136C U151A,≤ -4.2
7,A12U G46U G71U A142G,≤ -4.2
8,A12U C27G A41G C87U A91G G140U,≤ -4.2
9,A12C U102C A138C,≤ -4.2
10,C14G C87U,-2.29
11,C14G C87G,≤ -4.2
12,A12G C85A C118A,-0.759
13,A12U C76G C99U C132G,≤ -4.2
14,C14A A23U U31C U44A A73G G83C A110G,≤ -4.2
15,A12U G59C A89U A91U U101C U144C,≤ -4.2
16,U13G A23U A26C C36A C57A G86U C95U A121C,≤ -4.2
17,A12G U33A A39C G65A G70C C96G A119U C129A U135G,≤ -4.2
18,U13G A17U G88A C96G,≤ -4.2
19,A12U C32A A41C C103U,≤ -4.2
20,A12U G84U G141C,-2.48
